Drawing on article PMC4163662, this text covers percent reduction in binding relative to wild type for one substance.

In experiment [1] the target is GST-Shroom3 SD2 R1838A (mouse) (UniProt Q9QXN0). The experiment in a line: pull-down; GST-Shroom3 SD2 variants bound to glutathione beads, His-tagged hRock1 SBD soluble; 2 hours at room temperature; washed with NETN; SDS-PAGE, Coomassie Blue.
Experiment [2] concerns the target GST-Shroom3 SD2 R1838C (mouse) (UniProt Q9QXN0). The experiment is described as above.

Sequence of UniProt Q9QXN0 (Q9QXN0 1562-1986, stated change not applied): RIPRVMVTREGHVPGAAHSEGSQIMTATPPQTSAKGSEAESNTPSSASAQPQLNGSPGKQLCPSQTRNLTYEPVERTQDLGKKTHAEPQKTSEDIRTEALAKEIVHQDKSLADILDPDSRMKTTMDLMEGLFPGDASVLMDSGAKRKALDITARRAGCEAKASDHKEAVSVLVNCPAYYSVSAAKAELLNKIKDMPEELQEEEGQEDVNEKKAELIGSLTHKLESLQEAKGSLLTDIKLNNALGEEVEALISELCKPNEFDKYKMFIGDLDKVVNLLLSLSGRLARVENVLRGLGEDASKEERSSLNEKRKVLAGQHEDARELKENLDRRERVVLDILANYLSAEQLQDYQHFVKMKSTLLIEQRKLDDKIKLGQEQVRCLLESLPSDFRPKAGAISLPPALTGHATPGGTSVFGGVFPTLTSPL

With “His-tagged human Rock1 Shroom-Binding domain (SBD), amino acids 707-946 (from UniProt Q13464 707-946) (domain or fragment)”, the percent reduction in binding relative to wild type in experiment [1] came to 45%; in experiment [2], 95%.
